Laboratory results taken from patent publication US20200157151A1, “PEPTIDE COMPOUNDS, CONJUGATE COMPOUNDS AND USES THEREOF FOR TREATING INFLAMMATORY DISEASES” (TRANSFERT PLUS, S.E.C., priority 2017, published 2020).

Target: Human recombinant Sortilin chimera protein from R&D Systems (#3154-ST) (human) (UniProt Q99523)
Experiment: SPR (Biacore), Sortilin immobilized on CM5 chip, ligand injected

Human recombinant Sortilin chimera protein from R&D Systems (#3154-ST) (human), sequence (Q99523 78-755, change not shown): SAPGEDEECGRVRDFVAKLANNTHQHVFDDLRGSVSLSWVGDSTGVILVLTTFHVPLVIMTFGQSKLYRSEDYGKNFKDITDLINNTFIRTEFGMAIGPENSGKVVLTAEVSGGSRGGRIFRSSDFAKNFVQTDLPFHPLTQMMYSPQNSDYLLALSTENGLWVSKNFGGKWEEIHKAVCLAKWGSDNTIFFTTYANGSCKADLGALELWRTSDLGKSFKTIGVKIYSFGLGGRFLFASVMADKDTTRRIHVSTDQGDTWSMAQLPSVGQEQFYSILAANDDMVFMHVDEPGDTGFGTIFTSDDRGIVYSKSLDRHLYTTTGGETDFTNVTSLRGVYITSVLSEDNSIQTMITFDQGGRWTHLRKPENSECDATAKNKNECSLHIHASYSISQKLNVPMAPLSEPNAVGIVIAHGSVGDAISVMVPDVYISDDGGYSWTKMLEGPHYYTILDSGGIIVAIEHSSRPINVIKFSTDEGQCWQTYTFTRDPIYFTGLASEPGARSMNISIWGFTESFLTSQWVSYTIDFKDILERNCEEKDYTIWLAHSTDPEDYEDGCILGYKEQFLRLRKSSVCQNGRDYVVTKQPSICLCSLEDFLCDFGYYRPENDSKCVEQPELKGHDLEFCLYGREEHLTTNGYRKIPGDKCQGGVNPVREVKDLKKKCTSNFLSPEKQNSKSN

| Substance | Kd [nM] |
| --- | --- |
| Neurotensin, P30990 151-163 (peptide; modification not given) | 117 |
| Receptor-Associated Protein (RAP) (ligand) | 4.2 |
